US20250242034A1, “PHOSPHORAMIDATE-BASED PSMA-TARGETED SMALL-MOLECULE DRUG CONJUGATES” (priority 2022, published 2025)
Like-named read-outs stand apart in the source and are kept apart here. Square brackets hold non-standard residues; d marks the D form. Peptide text beside a SMILES is read from it. * marks the point of attachment. Dolaproine = CO[C@@H]([C@@H]1CCCN1)[C@@H](C)C(=O)O; Dil = CC[C@H](C)[C@H](NC)[C@@H](CC(=O)O)OC; X1 = C[C@@H](N*)[C@@H](O)c1ccccc1; NMeV = CN[C@H](C(=O)O)C(C)C

Tests used:
[1] = Compound residence study (PK): plasma and tissue levels of parent drug and MMAE by LC-MS/MS; assay type: in vivo, NCr nude mice; conditions: for Tumor AUC0-t, MMAE / Tumor Cmax, MMAE / Tumor AUC0-t, Parent / Tumor Cmax, Parent: PC3-PiP tumor; for Tumor AUC0-t, MMAE / Tumor Cmax, MMAE / Kidney AUC0-t, MMAE / Kidney Cmax, MMAE / Plasma % extrapolated, MMAE: analyte MMAE payload; for parent drug concentrations in tissues other than tumor: 0.8 mg/kg; for fraction of drug that is estimated to release MMAE: calculated from apparent MMAE formation clearance and reported MMAE clearance
Experimental: Compound Residence study design (PK Studies): Three volumes of PBS, pH 7.4, were added to tumor, kidney, and lacrimal tissues and 10 volumes of PBS, pH 7.4, were added to prostate tissue samples. Tumor, kidney, and prostate samples were homogenized with a homogenizer, and lacrimal tissues were sonicated with a sonicator. Twenty five microliters of plasma or tissue homogenate was added to a microcentrifuge tube followed by 10 μL of internal standard solution and 100 μL of 5 mM ammonium bicarbonate and acetonitrile (25:75 v,v). The sample was then vortexed at a high setting for 1 minute and centrifuged at 17,200×g for 10 minutes. The resultant supernatant was pipetted into an HPLC vial and 10-20 μL was injected into the LC-MS/MS system. […] [^2H8]-MMAE was used as the internal standard for MMAE. […] A SCIEX 6500+ Qtrap LC-MS/MS system consisting of an Agilent (Palo Alto, CA 94036) 1290 HPLC and Sciex 6500+ QTrap mass detector was used for quantitation of MMAE concentrations. The chromatography consisted of a gradient using of 5 mM ammonium bicarbonate and acetonitrile and the separation was achieved using a Phenomenex (Torrance, CA 90501) Kinetex column (2×50 mm, 2.6 μm). […] Standard curves were linear from 10-10,000 ng/mL for CTT1700, SMDCs 2 and 1 while the MMAE standard curves were linear from 0.01 to 10 ng/mL. A 1/y^2 weighted linear regression was used for all standard curves.
PK parameters were estimated using standard noncompartmental methods with Phoenix WinNonlin (Certara, Princeton, NJ). Plasma parent drugs were derived using the IV bolus approach, while all other data were derived using the extravascular approach.
(§1) To evaluate efficacy of SMDCs 1 and 2 in preclinical models of human PCa, we employed xenograft tumor models derived from PSMA+ PC3-PIP tumor cells implanted subcutaneously in the right rear flank of NCr nude mice (6-8 weeks old). […] Tumor sizes were measured twice weekly for the duration of the study and mortality noted for survival curves for 90 days after first administration. Animals were euthanized if tumor or mouse condition reached IACUC standards for euthanasia (tumor burden of >1.5 cm in any axis, ulceration, >20% mouse weight loss). Blood draws were taken via superficial temporal vein at 0, 4, 7 and 10 weeks, and complete blood count (CBC) analysis was performed with a 3-part differential measurement. For biodistribution studies, blood samples were obtained at 1 and 6 h post a single 0.8 mg/kg dose, followed by euthanasia at 24, 72 and 120 h; LC-MS/MS analysis was performed to determine concentrations of SMDC and MMAE in plasma, tumor, lacrimal gland, kidney, and prostate samples.

[2] = tested on: PSMA+ PC3-PIP tumor cells; assay type: in vivo, NCr nude mice; conditions: n=8; for time until animals reached end point criteria / end point tumor burden after first administration: IV once weekly for 6 weeks, SMDCs 0.8 mg/kg, MMAE 0.2 mg/kg
Experimental: Efficacy Study Design: NCr nude mice (age 6-8 weeks) injected with 1×10^6 PC3 PiP cells (1:1 in saline with Matrigel, 100 μL total volume) subcutaneously to right rear flank. Tumors were allowed to grow until approximate size of 100 mm^3 (roughly 2-3 weeks) before starting compound treatments. Treatment consisted of an injection of the appropriate compound to the lateral tail vein (100 μL bolus) once a week for the first 6 weeks of the study. Efficacy treatment groups were 8 animals each of: 1) saline, 2) MMAE alone, 0.2 mg/kg (molar equivalent to the MMAE conjugated to the small molecules), 3) CTT1700 (structure noted below), 0.8 mg/kg, 4) 1, 0.8 mg/kg, and 5) 2, 0.8 mg/kg. Tumor sizes were measured twice weekly for the duration of the study and mortality noted for survival curves. Animals were sacrificed if tumor condition reached IACUC standards for euthanasia (tumor burden of >1.5 cm in any axis, ulceration, >20% weight loss). Blood draws were taken via superficial temporal vein at 0, 4, 7 and 10 weeks and CBCs with 3-part differential measured.
as §1, with “measurement.” for “measurement. For biodistribution studies, blood samples were obtained at 1 and 6 h post a single 0.8 mg/kg dose, followed by euthanasia at 24, 72 and 120 h; LC-MS/MS analysis was performed to determine concentrations of SMDC and MMAE in plasma, tumor, lacrimal gland, kidney, and prostate samples.”

PSMA = PSMA (Homo sapiens, UniProt Q04609); experiment: PSMA binding (IC50 values for PSMA)
PSMA, sequence (Q04609 whole entry): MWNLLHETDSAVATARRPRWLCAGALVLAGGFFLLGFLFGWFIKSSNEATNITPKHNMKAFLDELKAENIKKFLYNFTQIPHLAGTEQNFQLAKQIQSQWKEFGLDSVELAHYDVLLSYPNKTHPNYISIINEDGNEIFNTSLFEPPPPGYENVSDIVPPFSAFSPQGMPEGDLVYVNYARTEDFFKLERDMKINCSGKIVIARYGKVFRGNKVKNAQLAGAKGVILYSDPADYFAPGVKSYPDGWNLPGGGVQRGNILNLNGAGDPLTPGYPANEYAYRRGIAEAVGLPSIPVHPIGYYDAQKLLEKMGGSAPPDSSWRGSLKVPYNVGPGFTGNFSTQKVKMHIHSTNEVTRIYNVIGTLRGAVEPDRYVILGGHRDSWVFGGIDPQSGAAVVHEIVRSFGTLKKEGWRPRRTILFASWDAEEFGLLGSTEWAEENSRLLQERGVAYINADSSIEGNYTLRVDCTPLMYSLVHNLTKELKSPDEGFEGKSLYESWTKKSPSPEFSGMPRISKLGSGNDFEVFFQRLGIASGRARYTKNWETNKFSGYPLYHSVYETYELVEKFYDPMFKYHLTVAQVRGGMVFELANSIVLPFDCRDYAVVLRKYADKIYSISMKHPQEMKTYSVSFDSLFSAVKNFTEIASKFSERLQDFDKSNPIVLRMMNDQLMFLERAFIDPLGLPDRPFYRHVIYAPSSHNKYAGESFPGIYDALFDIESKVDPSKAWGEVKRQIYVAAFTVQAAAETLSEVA

[3] = cited from earlier work
[4] = reported pharmacokinetics of MMAE dosed directly; assay type: in vivo; conditions: corresponds to 60 mL/h
[5] = IV 0.8 mg/kg, analyte parent drug
[6] = NCr nude, mouse, IV 0.8 mg/kg, plasma, analyte parent drug, read-out: Plasma Cmax, Parent
[7] = 0.8 mg/kg IV once weekly for 6 weeks
[8] = IV 0.8 mg/kg, kidney, analyte parent drug
[9] = IV 0.8 mg/kg, plasma, analyte parent drug

## CC[C@H](C)[C@@H]([C@@H](CC(=O)N1CCC[C@H]1[C@H](OC)[C@@H](C)C(=O)N[C@H](C)[C@@H](O)c1ccccc1)OC)N(C)C(=O)[C@@H](NC(=O)[C@H](C(C)C)N(C)C(=O)OCc1ccc(NC(=O)[C@H](CCCNC(N)=O)NC(=O)[C@@H](NC(=O)c2ccc(Cn3nnc4c3-c3ccccc3CN(C(=O)CCC(=O)NCCOCCOCCOCCOCCC(=O)N[C@@H](CCC(=O)NCCCCCC(=O)N[C@@H](CCC(=O)N[C@@H](CCCOP(=O)(O)N[C@@H](CCC(=O)O)C(=O)O)C(=O)O)C(=O)O)C(=O)N[C@H](CCCCNC(=O)CCCc3ccc(I)cc3)C(=O)O)c3ccccc3-4)cc2)C(C)C)cc1)C(C)C [SMDC 1]
[1]; IV 0.8 mg/kg
  Tumor AUC0-t, MMAE: 1652 ng·days/g
  Tumor Cmax, MMAE: 509 ng/g
[1]; [5]
  Tumor AUC0-t, Parent: 475 ng·days/g
  Tumor Cmax, Parent: 122 ng/g
  parent drug concentrations in tissues other than tumor: could not be quantified in any other tissue other than the tumor
[1]; IV 0.8 mg/kg, analyte parent drug, listed as VC
  parent drug concentrations in tissues other than tumor: VC concentrations in all tissues other than tumor were below the LLOQ.
[1]; IV 0.8 mg/kg, kidney
  Kidney AUC0-t, MMAE: 55.5 ng·days/g
  Kidney Cmax, MMAE: 30.6 ng/g
[1]; IV 0.8 mg/kg, plasma
  distribution volume of parent SMDC: 0.106 L/kg
[1]; IV 0.8 mg/kg, plasma AUC
  Plasma % extrapolated, MMAE: 2.9%
[1]; IV 0.8 mg/kg, tumor, higher than control SMDC with non-degradable linker
  absolute tumor MMAE exposure compared to CTT1700: approximately 6 fold
[1]; [6]
  Cmax: < 10 ng/mL
[1]
  fraction of drug that is estimated to release MMAE: 38%
[2]; [7]
  survival 90 days after initial dosing: Six of eight
  therapeutic efficacy (in words): dramatic efficacy compared to controls
  tumor growth response: tumor regression was observed following initiation of administration up until 2 weeks after the last dose, with subsequent slow tumor growth
PSMA; read-out: IC50 for PSMA
  IC50: 24.1 ± 2.1 nM

## CC[C@H](C)[C@@H]([C@@H](CC(=O)N1CCC[C@H]1[C@H](OC)[C@@H](C)C(=O)N[C@H](C)[C@@H](O)c1ccccc1)OC)N(C)C(=O)[C@@H](NC(=O)[C@H](C(C)C)N(C)P(=O)(O)OCC[C@H](NC(=O)c1ccc(Cn2nnc3c2-c2ccccc2CN(C(=O)CCC(=O)NCCOCCOCCOCCOCCC(=O)N[C@@H](CCC(=O)NCCCCCC(=O)N[C@@H](CCC(=O)N[C@@H](CCCOP(=O)(O)N[C@@H](CCC(=O)O)C(=O)O)C(=O)O)C(=O)O)C(=O)N[C@H](CCCCNC(=O)CCCc2ccc(I)cc2)C(=O)O)c2ccccc2-3)cc1)C(=O)O)C(C)C [CTT1700, reference compound]
[1]; IV 0.8 mg/kg
  Tumor AUC0-t, MMAE: 262 ng·days/g
  Tumor Cmax, MMAE: 98.7 ng/g
[1]; [5]
  Tumor AUC0-t, Parent: 483 ng·days/g
  Tumor Cmax, Parent: 194 ng/g
[1]; IV 0.8 mg/kg, kidney
  Kidney AUC0-t, MMAE: 4.00 ng·days/g
  Kidney Cmax, MMAE: 1.82 ng/g
[1]; [8]
  Kidney AUC0-t, Parent: 685 ng·days/g
  Kidney Cmax, Parent: 400 ng/g
[1]; IV 0.8 mg/kg, lacrimal gland, analyte parent drug
  Lacrimal AUC0-t, Parent: 220 ng·days/g
[1]; IV 0.8 mg/kg, plasma AUC
  Plasma % extrapolated, MMAE: 28%
[1]; IV 0.8 mg/kg, plasma AUC, analyte parent drug
  Plasma % extrapolated, Parent: 1.9%
[1]; [9]
  Plasma AUC0-inf, Parent: 6566 ng·days/mL
  Plasma AUC0-t, Parent: 6442 ng·days/mL
[1]; IV 0.8 mg/kg, prostate, analyte parent drug
  Prostate AUC0-t, Parent: 647 ng·days/g
[1]; NCr nude, mouse, kidney/plasma, IV 0.8 mg/kg, analyte parent drug, read-out: Kp (kidney/plasma), Parent
  Kp: 0.106
[1]; NCr nude, mouse, lacrimal gland/plasma, IV 0.8 mg/kg, analyte parent drug, read-out: Kp (Lacrimal/plasma), Parent
  Kp: 0.0342
[1]; NCr nude, mouse, prostate/plasma, IV 0.8 mg/kg, analyte parent drug, read-out: Kp (prostate/plasma), Parent
  Kp: 0.1
[1]; NCr nude, mouse, tumor/plasma, IV 0.8 mg/kg, analyte parent drug, read-out: Kp (tumor/plasma), Parent
  Kp: 0.075
[1]; NCr nude, mouse, IV 0.8 mg/kg, lacrimal gland, analyte parent drug, read-out: Lacrimal Cmax, Parent
  Cmax: 71.9 ng/g
[1]; NCr nude, mouse, IV 0.8 mg/kg, plasma, analyte parent drug
  Tmax: 1 h
[1]; NCr nude, mouse, IV 0.8 mg/kg, plasma, analyte parent drug, read-out: Plasma Cl, Parent (converted)
  clearance: 5.08 mL/h/kg
[1]; [6]
  Cmax: 7020 ng/mL
[1]; NCr nude, mouse, IV 0.8 mg/kg, plasma, analyte parent drug, read-out: Plasma Vss, Parent
  Vd: 0.136 L/kg
[1]; NCr nude, mouse, IV 0.8 mg/kg, plasma, analyte parent drug, read-out: Plasma t1/2, Parent (converted)
  half-life: 23 h
[1]; NCr nude, mouse, IV 0.8 mg/kg, prostate, analyte parent drug, read-out: Prostate Cmax, Parent
  Cmax: 280 ng/g
[1]
  fraction of drug that is estimated to release MMAE: 1%
[2]; [7]
  therapeutic efficacy (in words): moderate efficacy
[2]
  time until animals reached end point criteria / end point tumor burden after first administration: ≤ 12 weeks

## CC[C@H](C)[C@@H]([C@@H](CC(=O)N1CCC[C@H]1[C@H](OC)[C@@H](C)C(=O)N[C@H](C)[C@@H](O)c1ccccc1)OC)N(C)C(=O)[C@@H](NC(=O)[C@H](C(C)C)N(C)C(=O)OCc1ccc(OC(=O)N(C)CCN(C)P(=O)(O)OCC[C@H](NC(=O)c2ccc(Cn3nnc4c3-c3ccccc3CN(C(=O)CCC(=O)NCCOCCOCCOCCOCCC(=O)N[C@@H](CCC(=O)NCCCCCC(=O)N[C@@H](CCC(=O)N[C@@H](CCCOP(=O)(O)N[C@@H](CCC(=O)O)C(=O)O)C(=O)O)C(=O)O)C(=O)N[C@H](CCCCNC(=O)CCCc3ccc(I)cc3)C(=O)O)c3ccccc3-4)cc2)C(=O)O)cc1)C(C)C [SMDC 2]
PSMA
  IC50: 1.74 ± 0.14 nM

## CC[C@H](C)[C@@H]([C@@H](CC(=O)N1CCC[C@H]1[C@H](OC)[C@@H](C)C(=O)N[C@H](C)[C@@H](O)c1ccccc1)OC)N(C)C(=O)[C@@H](NC(=O)[C@@H](NC)C(C)C)C(C)C [MMAE, Monomethyl auristatin E] (H-[NMeV]V[Dil][Dolaproine]-X1)
[3]; MMAE dosed directly
  t1/2 reported for MMAE when dosed directly: 4.1 h
[3]; in vivo
  reported plasma clearance of MMAE: 60 mL/h
[2]
  time until animals reached end point criteria / end point tumor burden after first administration: ≤ 6 weeks
[4]
  reported plasma clearance of MMAE, converted: 1960 mL/h/kg
